Values joined by “and” are separate entries in the source; they are usually repeats but may differ in a detail not shown here. Equal entries are not always repeated.
System: NHEK
Test: Migration/proliferation of NHEK, wound recovery by kinetic image analysis
Assay type: cell-based, human
Settings: 10 ng/ml, single image
Protocol: Botanical extracts were evaluated for anti-aging, cell renewal and anti-inflammatory properties via systemic application (diluted in the culture medium) using the concentrations that were determined not toxic for skin cells (0.1 mg/ml) followed by two successive 3-fold dilutions. The matrix metalloproteinase-1 (MMP-1) assay using a specific ELISA kit was used to evaluate anti-aging properties. The migration/proliferation of NHEK using kinetic image analysis of the wound recovery was used to evaluate cell renewal properties. The IL-8 release on NHEK stimulated by PMA using a specific ELISA kit was used to evaluate anti-inflammatory properties.

B1: EGF: control (EGF) at 10 ng/ml in the wound recovery assay (protein, UniProt P01133 23-1207, looked up)
Pro-epidermal growth factor: PQHWSCPEGTLAGNGNSTCVGPAPFLIFSHGNSIFRIDTEGTNYEQLVVDAGVSVIMDFHYNEKRIYWVDLERQLLQRVFLNGSRQERVCNIEKNVSGMAINWINEEVIWSNQQEGIITVTDMKGNNSHILLSALKYPANVAVDPVERFIFWSSEVAGSLYRADLDGVGVKALLETSEKITAVSLDVLDKRLFWIQYNREGSNSLICSCDYDGGSVHISKHPTQHNLFAMSLFGDRIFYSTWKMKTIWIANKHTGKDMVRINLHSSFVPLGELKVVHPLAQPKAEDDTWEPEQKLCKLRKGNCSSTVCGQDLQSHLCMCAEGYALSRDRKYCEDVNECAFWNHGCTLGCKNTPGSYYCTCPVGFVLLPDGKRCHQLVSCPRNVSECSHDCVLTSEGPLCFCPEGSVLERDGKTCSGCSSPDNGGCSQLCVPLSPVSWECDCFPGYDLQLDEKSCAASGPQPFLLFANSQDIRHMHFDGTDYGTLLSQQMGMVYALDHDPVENKIYFAHTALKWIERANMDGSQRERLIEEGVDVPEGLAVDWIGRRFYWTDRGKSLIGRSDLNGKRSKIITKENISQPRGIAVHPMAKRLFWTDTGINPRIESSSLQGLGRLVIASSDLIWPSGITIDFLTDKLYWCDAKQSVIEMANLDGSKRRRLTQNDVGHPFAVAVFEDYVWFSDWAMPSVMRVNKRTGKDRVRLQGSMLKPSSLVVVHPLAKPGADPCLYQNGGCEHICKKRLGTAWCSCREGFMKASDGKTCLALDGHQLLAGGEVDLKNQVTPLDILSKTRVSEDNITESQHMLVAEIMVSDQDDCAPVGCSMYARCISEGEDATCQCLKGFAGDGKLCSDIDECEMGVPVCPPASSKCINTEGGYVCRCSEGYQGDGIHCLDIDECQLGEHSCGENASCTNTEGGYTCMCAGRLSEPGLICPDSTPPPHLREDDHHYSVRNSDSECPLSHDGYCLHDGVCMYIEALDKYACNCVVGYIGERCQYRDLKWWELRHAGHGQQQKVIVVAVCVVVLVMLLLLSLWGAHYYRTQKLLSKNPKNPYEESSRDVRSRRPADTEDGMSSCPQPWFVVIKEHQDLKNGGQPVAGEDGQAADGSMQPTSWRQEPQLCGMGTEQGCWIPVSSDKGSCPQVMERSFHMPSYGTQTLEGGVEKPHSLLSANPLWQQRALDPPHQMELTQ
modifications: Pro-epidermal growth factor
notes: control (EGF) at 10 ng/ml in the wound recovery assay
For B1, the Wound area (16 hours) was 0.86 mm^2 and 0.69 mm^2 and 0.89 mm^2 and the Wound area (24 hours) was 0.64 mm^2 and 0.44 mm^2 and 0.63 mm^2.
